According to the supplement of paper PMC9170038:

What follows are sequences tested on K4 kissing-loop RNA reporter (assay: apparent KD of K4 kissing-loop reporter; higher = weaker reporter binding). Conditions: Eterna round: R107; input ligand: FMN 200 uM.
Protocol: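 RNA-MaP round R107: designed RNA switches with theophylline, tryptophan, arginine or FMN aptamers are transcribed on-chip within common flanks. They are titrated with a labelled K4 kissing-loop RNA reporter in RNA-MaP buffer (100 mM Tris pH 7.5, 80 mM KCl, 4 mM MgCl2), without ligand or with the indicated ligand. Median apparent KD per design.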
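Further: bound reporter read as fluorescence of individual clusters on recovered sequencing chips by microscopy, with normalized cluster intensities fitted with a binding model.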

In order of falling “apparent KD of K4 kissing-loop reporter” value:
1. CACUUACGUAGUGAUGUUACGAUCUCUGAUACCAGACAACUCUAAGUCCCUUGGCAGCAGUCAUUUUGCUUAGUAUUUACUCAAA [JR_ExcTheophyA_Sub016]  679 nM
2. AGUGAAGUUAGUGAUGUGUGAGUUUGGGAAGGAGCGCCGAGGAAGGCAGGUAGGUCGCCCAGUGAUGUUGGUGUAAGGAUGAGAG [whbob_Ex_Arginine_A_2t123]  451 nM
3. UGUCUUUUUUUGAUGUUUUUUGUAUAAUGGCAGGAUAUCGUAGAGGCGAGAAGGGCUUUUAUGCGUUAUGAGUGAUGUUUGUAGG [vevvmullin]  321 nM
4. AGACUACCACACUGUCAAUAGACAGUGAACUAGGAUAUGCUGAUAAGCAGAAGGAGUGAUGUUCCGAGGUAGUCAAUAAAAUAAU [FmnAX 13 G66]  281 nM
5. GCAGUGAUGUUGCGCGAGUACGGUAGAGUACGAGGACCGGUACGGCCGCCACUCGUACGGAACUGGCUAAUUUAUGGAAUGGUGA [III]  254 nM
6. AGUAGAGCAUCAGAUACCAGACUGAACUGAUGGUAAGGAGUGAUGUUCCUUAAUCAGCUAGUCCCUUGGCAGCUGAUAAUAGUCA [Theo B SS t3]  251 nM
7. CGGCGGAGUGAUGUUCCACCUACUGCGGAUACCAGCUUUGCCAAAGGCCCUUGGCAGCCGCACGGCUCAGUGAUGUUGGGUCGCG [Same State Theophylline A G11]  225 nM
8. CCACCUCCAGAAGGAUAUAGUGUAUCAGAUUCACUCGAGUGCCUUAAACUAAGGAGUGAUGUUCCGCUAGAAGGUCUCGUAGGCA [theeternabot_exclusion_KL_FMN_B_45]  191 nM
9. AGGACGGUUAUGGAUACCAGUCCGGAACUUGUCCAUGGAGUGAUGUUCCGUCCAGCUCCGGACCCUUGGCAGCCAGACUGCUGAA [theeternabot_sameState_KL_Theo_B_41]  185 nM
10. UGACUGGAUGGAAGGAGCGCUAAACUCCUAGUGAUGUUAGGGAAAUGAGACAAAGUCUCAAGGCAGGUAGGUCGCCAUCUAGUCU [FiskerMod 16 - Jieux - Same State - Arginine B]  142 nM
11. CCGCUACCCUCAGGAUAUUAAAUAUUAGUGAUGUUAAUAAACCGAUGGCGAAAGCCAUCGGUAUGUUAAGAAGGGAGGGUAGCGG  138 nM
12. UGAUACCAGACUGAUACCAGCCAGUGAUGUUGGCUAAGCCGAAGAGGUGUCAAAGACACCGGCCCUUGGCAGCAGUCUGGUAUCU [#06 K4 Theophylline B Exclusion]  132 nM
13. GAACGAGUGAUGUUCGUUGGCAUGCAUUCCGAGGAUAUGGGAUUAGCCAGAAGGCGGAAUCAGUCUUCGAGUGAUGUUCGAAGAU [Same State FMN A GF 12]  112 nM
14. UAAUUUAUGUCUUUAAUUUUAUUAUCAGAUACCAGUGAUUUAUGACACCCUUGGCAGCUGUAUUGAGUGAUGUUCUUAUAUUAAA [JR_Nu_ExcTheophyA_Sub023]  111 nM
15. UUAAAAUAUAUAAAUAAUAAGGGAAUUGAUACCAGACAGAAUUCUGUCCCUUGGCAGCAGUGAUGUUGUUGCAAUUUAAAUAAUU [AK1 Exc Theophylline A]  104 nM
16. UGACGUUUGGGAAGGAGCGGAAUGUAAUACGGAACGCGUGGAGAUGCAGUGAUGUUGCAGAUCCAGGUAGGUCGCCCAAGGGACG [Zainat]  91.4 nM

Same assay, conditions: Eterna round: R107; input ligand: arginine 13.2 mM

In order of rising “apparent KD of K4 kissing-loop reporter” value:
1. AAUACGAAGCAGUGAUGUUGCUUAUGAGAAGGAGCGCACGAAAGUGCAGGUAGGUCGCUCAGCCAUGUGGACGAAAACGUCCACA [whbob_SS_Arginine_A_sa109]  102 nM
2. CCGAUGGGUACAGGAUAUGCCAGUGAUGUUGGUUUAGAUGGACCCAGAAGGAGACACCAGACGGAGGCAGAAGGGUAGCAAGGGA [Raarriis]  108 nM
3. GUAGACAGACUGCGGGCCUAGUCUACAGACUAGGAUAUCAGGAAACUGAGAAGGAGUCUAGUUGCAGUGAUGUUGCAAGAAUAAU [KL-SSFMN-A26]  115 nM
4. AAGUGUCAUUAGACACAGACUACAAUAAACUAGGAUAUGCUGAUAAGCAGAAGGAGUGAUGUUCCUUUCAAGUAGUCAAUUAAAU [FmnAX 20 Mat Inspired #SwitchBubble #StaticStem #K4Late]  120 nM
5. AAUAAAAUCACGGCCGCCACUGAUGCUAAUAUUAGCAGUGAUGUUGCUAUGUAGAUUUUAUUUAACAGGACCGGGUGAAUAUUUA [JR_SSTryptoB_Sub025]  124 nM
6. UAACUUGCAGUGAUGUUGCAAGAACUGGAUACCAGCAUGGAAACAUGCCCUUGGCAGCCAGAAGCUGGCUGAACAUCACGUCAGU [Design5]  140 nM
7. UGUUUUUACUGAAGGAGCGGCAAUUGAUACGUAGAUAUAGUGAUGUUAUAUAAGAUAGAGAGCCAGGUAGGUCGCAGAGUGUUUC [ExArgB.aA]  195 nM
8. GCAGUGAUGUUGCGCGGGUACGGUAGAGUACGAGGACCGGUACGGCCGCCACUCGUACGGAACUGGCUAAUUUAUGGAAUGGUGA [IV]  198 nM
9. AUUUUUUUGUCAGGAUAUUAGUAUGGUUUUGGUUUGUUAGUGAUGUUGAUAUUUUGUUUAUGUAUUUAAGAAGGGAUUUAGCGGU [gyhhgumullin]  290 nM
10. GCGAUUCAGUGAUGUUGGAAAUACAGGGAUACCAGCCGAGAAUAAGGCCCUUGGCAGCUUAAUAGGAAAGAACUAAGUAAGACGC [Theophylline A Same State; Euphoria Solution 2]  569 nM
